Reference: patent publication US20230160883A1

How the values were obtained:
[1] = target: TZSV N protein (recombinant, expressed from pET30a-TZSV in E. coli BL21 (DE3)) (tomato zonate spot virus); assay: indirect ELISA, negative of the row of FL484-19
[2] = target: TZSV N protein (recombinant, expressed from pET30a-TZSV in E. coli BL21 (DE3)) (tomato zonate spot virus); assay: indirect ELISA, negative of the row of FL484-13
[3] = target: TZSV N protein (recombinant, expressed from pET30a-TZSV in E. coli BL21 (DE3)) (tomato zonate spot virus); assay: indirect ELISA, negative of the row of FL484-4
[4] = target: TZSV N protein (recombinant, expressed from pET30a-TZSV in E. coli BL21 (DE3)) (tomato zonate spot virus); assay: indirect ELISA, negative of the row of FL484-7
[5] = target: TZSV N protein (recombinant, expressed from pET30a-TZSV in E. coli BL21 (DE3)) (tomato zonate spot virus); assay: indirect ELISA, negative of the row of FL484-1
[6] = target: TZSV N protein (recombinant, expressed from pET30a-TZSV in E. coli BL21 (DE3)) (tomato zonate spot virus); assay: indirect ELISA, negative of the row of FL484-28
[7] = target: TZSV N protein (recombinant, expressed from pET30a-TZSV in E. coli BL21 (DE3)) (tomato zonate spot virus); assay: indirect ELISA, negative of the row of FL484-34
[8] = target: TZSV N protein (recombinant, expressed from pET30a-TZSV in E. coli BL21 (DE3)) (tomato zonate spot virus); assay: indirect ELISA, negative of the row of FL484-20
[9] = target: TZSV N protein (recombinant, expressed from pET30a-TZSV in E. coli BL21 (DE3)) (tomato zonate spot virus); assay: indirect ELISA, negative control of the row of M210047
[10] = target: TZSV N protein (recombinant, expressed from pET30a-TZSV in E. coli BL21 (DE3)) (tomato zonate spot virus); assay: indirect ELISA, negative of the row of FL484-22
[11] = target: TZSV N protein (recombinant, expressed from pET30a-TZSV in E. coli BL21 (DE3)) (tomato zonate spot virus); assay: indirect ELISA, negative of the row of FL484-27
[12] = target: TZSV N protein (recombinant, expressed from pET30a-TZSV in E. coli BL21 (DE3)) (tomato zonate spot virus); assay: indirect ELISA, negative of the row of FL484-21
[13] = target: TZSV N protein (recombinant, expressed from pET30a-TZSV in E. coli BL21 (DE3)) (tomato zonate spot virus); assay: indirect ELISA, negative of the row of FL484-30
[14] = target: TZSV N protein (recombinant, expressed from pET30a-TZSV in E. coli BL21 (DE3)) (tomato zonate spot virus); assay: indirect ELISA, negative of the row of FL484-16
[15] = target: TZSV N protein (recombinant, expressed from pET30a-TZSV in E. coli BL21 (DE3)) (tomato zonate spot virus); assay: indirect ELISA, negative of the row of FL484-11
[16] = target: TZSV N protein (recombinant, expressed from pET30a-TZSV in E. coli BL21 (DE3)) (tomato zonate spot virus); assay: indirect ELISA, negative control of the row of M210048
[17] = target: TZSV N protein (recombinant, expressed from pET30a-TZSV in E. coli BL21 (DE3)) (tomato zonate spot virus); assay: indirect ELISA, negative of the row of FL484-32
[18] = target: TZSV N protein (recombinant, expressed from pET30a-TZSV in E. coli BL21 (DE3)) (tomato zonate spot virus); assay: indirect ELISA, negative of the row of FL484-2
[19] = target: TZSV N protein (recombinant, expressed from pET30a-TZSV in E. coli BL21 (DE3)) (tomato zonate spot virus); assay: indirect ELISA, negative of the row of FL484-18
[20] = target: TZSV N protein (recombinant, expressed from pET30a-TZSV in E. coli BL21 (DE3)) (tomato zonate spot virus); assay: indirect ELISA, negative of the row of FL484-8
[21] = target: TZSV N protein (recombinant, expressed from pET30a-TZSV in E. coli BL21 (DE3)) (tomato zonate spot virus); assay: indirect ELISA, negative of the row of FL484-6
[22] = target: TZSV N protein (recombinant, expressed from pET30a-TZSV in E. coli BL21 (DE3)) (tomato zonate spot virus); assay: indirect ELISA, negative of the row of FL484-23
[23] = target: TZSV N protein (recombinant, expressed from pET30a-TZSV in E. coli BL21 (DE3)) (tomato zonate spot virus); assay: indirect ELISA, negative of the row of FL484-12
[24] = target: TZSV N protein (recombinant, expressed from pET30a-TZSV in E. coli BL21 (DE3)) (tomato zonate spot virus); assay: indirect ELISA, negative of the row of FL484-5
[25] = target: TZSV N protein (recombinant, expressed from pET30a-TZSV in E. coli BL21 (DE3)) (tomato zonate spot virus); assay: indirect ELISA, negative of the row of FL484-9
[26] = target: TZSV N protein (recombinant, expressed from pET30a-TZSV in E. coli BL21 (DE3)) (tomato zonate spot virus); assay: indirect ELISA, negative of the row of FL484-3
[27] = target: TZSV N protein (recombinant, expressed from pET30a-TZSV in E. coli BL21 (DE3)) (tomato zonate spot virus); assay: indirect ELISA, negative control of the row of M210045
[28] = target: TZSV N protein (recombinant, expressed from pET30a-TZSV in E. coli BL21 (DE3)) (tomato zonate spot virus); assay: indirect ELISA, negative control of the row of M210046
[29] = target: TZSV N protein (recombinant, expressed from pET30a-TZSV in E. coli BL21 (DE3)) (tomato zonate spot virus); assay: indirect ELISA, negative of the row of FL484-17
[30] = target: TZSV N protein (recombinant, expressed from pET30a-TZSV in E. coli BL21 (DE3)) (tomato zonate spot virus); assay: indirect ELISA, negative of the row of FL484-25
[31] = target: TZSV N protein (recombinant, expressed from pET30a-TZSV in E. coli BL21 (DE3)) (tomato zonate spot virus); assay: indirect ELISA, negative of the row of FL484-26
[32] = target: TZSV N protein (recombinant, expressed from pET30a-TZSV in E. coli BL21 (DE3)) (tomato zonate spot virus); assay: indirect ELISA, negative of the row of FL484-31
[33] = target: TZSV N protein (recombinant, expressed from pET30a-TZSV in E. coli BL21 (DE3)) (tomato zonate spot virus); assay: indirect ELISA, negative of the row of FL484-35
[34] = target: TZSV N protein (recombinant, expressed from pET30a-TZSV in E. coli BL21 (DE3)) (tomato zonate spot virus); assay: indirect ELISA, negative of the row of FL484-29
[35] = target: TZSV N protein (recombinant, expressed from pET30a-TZSV in E. coli BL21 (DE3)) (tomato zonate spot virus); assay: indirect ELISA, negative of the row of FL484-15
[36] = target: TZSV N protein (recombinant, expressed from pET30a-TZSV in E. coli BL21 (DE3)) (tomato zonate spot virus); assay: indirect ELISA, negative of the row of FL484-10
[37] = target: TZSV N protein (recombinant, expressed from pET30a-TZSV in E. coli BL21 (DE3)) (tomato zonate spot virus); assay: indirect ELISA, negative of the row of FL484-24
[38] = target: TZSV N protein (recombinant, expressed from pET30a-TZSV in E. coli BL21 (DE3)) (tomato zonate spot virus); assay: indirect ELISA, negative of the row of FL484-33
[39] = target: TZSV N protein (recombinant, expressed from pET30a-TZSV in E. coli BL21 (DE3)) (tomato zonate spot virus); assay: indirect ELISA, negative of the row of FL484-14

“negative control (mouse serum before immunization)” was tested, and the OD450 [1] was 0.164 OD, the OD450 [2] was 0.155 OD and the OD450 [3] was 0.23 OD. For the same substance, the OD450 [4] was 0.24 OD, the OD450 [5] was 0.169 OD and the OD450 [6] was 0.229 OD. The OD450 [7] was 0.193 OD, the OD450 [8] was 0.236 OD and the OD450 [9] was 0.137 OD. It also gave an OD450 [10] of 0.163 OD, an OD450 [11] of 0.197 OD and an OD450 [12] of 0.18 OD. For the same substance, the OD450 [13] was 0.265 OD, the OD450 [14] was 0.209 OD and the OD450 [15] was 0.052 OD. It also gave an OD450 [16] of 0.125 OD, an OD450 [17] of 0.194 OD and an OD450 [18] of 0.208 OD. It also gave an OD450 [19] of 0.179 OD, an OD450 [20] of 0.196 OD and an OD450 [21] of 0.24 OD. It also gave an OD450 [22] of 0.232 OD, an OD450 [23] of 0.157 OD and an OD450 [24] of 0.237 OD. The OD450 [25] was 0.171 OD, the OD450 [26] was 0.14 OD and the OD450 [27] was 0.137 OD. It also gave an OD450 [28] of 0.146 OD, an OD450 [29] of 0.186 OD and an OD450 [30] of 0.234 OD. For the same substance, the OD450 [31] was 0.161 OD, the OD450 [32] was 0.172 OD and the OD450 [33] was 0.19 OD. For the same substance, the OD450 [34] was 0.215 OD, the OD450 [35] was 0.187 OD and the OD450 [36] was 0.158 OD. The OD450 [37] was 0.203 OD, the OD450 [38] was 0.221 OD and the OD450 [39] was 0.19 OD.
